Literature values as cited in PMC7072806.
pKd: −log10 of the molar value. Like-named read-outs stand apart in the source and are kept apart here.

Columns and labels:
CCR5 (Homo sapiens) [1] = target: CCR5 (Homo sapiens) (UniProt P51681)
CCR5 (Homo sapiens) [2] = target: CCR5 (Homo sapiens) (UniProt P51681); test: SPR

UniProt P51681, sequence (P51681 whole entry): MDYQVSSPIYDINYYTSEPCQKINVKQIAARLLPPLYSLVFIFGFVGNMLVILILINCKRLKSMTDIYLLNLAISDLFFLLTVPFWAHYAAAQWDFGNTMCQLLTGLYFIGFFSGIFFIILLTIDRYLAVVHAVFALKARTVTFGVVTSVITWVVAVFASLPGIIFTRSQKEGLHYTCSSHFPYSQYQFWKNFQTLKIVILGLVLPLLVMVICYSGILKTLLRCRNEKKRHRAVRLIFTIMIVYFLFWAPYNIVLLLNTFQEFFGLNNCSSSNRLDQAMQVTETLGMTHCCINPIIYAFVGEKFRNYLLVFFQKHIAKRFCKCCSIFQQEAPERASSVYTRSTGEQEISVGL

| pKd (CCR5 (Homo sapiens) [1]) | pKd (CCR5 (Homo sapiens) [2]) | Substance |
| --- | --- | --- |
| 9.40 | – | RANTES (from UniProt P13501) |
| – | 5.30 | eNAMPT (from UniProt P43490) |
